The values that follow come from US20070254316A1 (Johns Hopkins, published 2007).

Ends that are not written are not given here.

The target of one test is T1, PSMA on LNCaP cells (human, UniProt Q04609 1-750).
T1 construct: whole, on cells; Target is whole LNCaP cells; also called PSMA expressing LNCaP cells
The test can be described thus: phage binding to LNCaP cells, 10^8 PFU, BRASIL partitioning and titer. The method, then: FIG. 6 depicts the binding of individual phage clones to PSMA expressing LNCaP cells. 1.3×10⁵ harvested LNCaP cells were incubated with 10⁸ PFU of each individual phage for 20 minutes. Cell-bound phage were isolated by BRASIL partitioning and titered. Phage clones contained peptide sequences as follows: R5-C6: SEQ ID NO:2; R4-C9: SEQ ID NO:5; R5-XC1: SEQ ID NO:1; R3-A4: SEQ ID NO:95.
(§1) Cell monolayers were washed several times in PBS, and finally incubated five minutes in PBS at 37° C. Cells were knocked free, pelleted, and suspended in RPMI 1640+1% FBS at a concentration of 10⁶ cells per milliliter. 10⁸ PFU from each clone were incubated with 100 μl of cells at 37° C. for 20 minutes while rotating. For competitive inhibition, purified xPSM or BSA were added to the cells along with phage, and a larger concentration of 10¹⁰ PFU was applied. The cells were then centrifuged through 200 μl of 9:1 dibutyl phthalate:cyclohexane, previously described as BRASIL portioning (Giordano, R. J. et al. (2001) Nat. Med. 7:1249-1253, incorporated herein by reference). The tube was then snap frozen in liquid nitrogen to isolate the cell pellet. The cell pellets were then resuspended in 200 μl of log phage ER2738 cells and phage allowed to infect 1 hour at room temperature. A small aliquot was taken to determine the number of phage bound by dilution titer.

The target in test [1] is T2, xPSM (extracellular portion of human PSMA, Tag-xPSM digested with enterokinase, no affinity tags) (human, UniProt Q04609 44-750).
T2 construct: extracellular domain; also called purified xPSM; soluble xPSM protein
T2 sequence (Q04609 44-750): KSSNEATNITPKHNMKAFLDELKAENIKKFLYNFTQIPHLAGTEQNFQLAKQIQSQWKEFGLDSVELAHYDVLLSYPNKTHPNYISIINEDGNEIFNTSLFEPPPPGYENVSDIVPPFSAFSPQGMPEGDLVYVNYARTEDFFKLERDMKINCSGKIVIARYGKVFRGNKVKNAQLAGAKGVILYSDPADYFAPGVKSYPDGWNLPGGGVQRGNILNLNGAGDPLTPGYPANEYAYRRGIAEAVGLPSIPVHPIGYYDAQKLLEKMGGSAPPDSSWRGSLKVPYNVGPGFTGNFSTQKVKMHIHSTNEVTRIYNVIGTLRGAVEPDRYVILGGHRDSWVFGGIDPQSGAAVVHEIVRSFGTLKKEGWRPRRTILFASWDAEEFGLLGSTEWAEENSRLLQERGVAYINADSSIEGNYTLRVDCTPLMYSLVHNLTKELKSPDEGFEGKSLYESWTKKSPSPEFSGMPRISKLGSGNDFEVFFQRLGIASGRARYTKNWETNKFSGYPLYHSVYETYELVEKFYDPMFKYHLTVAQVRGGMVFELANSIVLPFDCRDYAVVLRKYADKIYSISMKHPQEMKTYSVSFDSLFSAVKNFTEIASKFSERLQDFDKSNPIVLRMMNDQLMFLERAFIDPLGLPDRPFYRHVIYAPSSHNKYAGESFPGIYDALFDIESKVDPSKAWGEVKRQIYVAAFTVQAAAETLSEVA
The test can be described thus: phage ELISA on xPSM. (In general: In an ELISA, binding on a coated surface is turned into a signal by an enzyme label.)

Test [2] addresses T3, Tag-xPSM fusion target protein (human, UniProt Q04609 44-750).
T3 construct: extracellular domain; they are put first here only as a guess from the type II topology; Made in Sf-9 cells; also called PSMA fusion protein
The test can be described thus: phage ELISA; R3-A4 stands only in FIG. 5, where Tag-xPSM was immobilised. The source says:
(§2) FIG. 5 depicts the binding of selected phage clones to purified extracellular PSMA. Tag-xPSM was immobilized on microtiter plates and targeted for binding with 10¹⁰ PFU of each individual phage. Bound phages were quantified by ELISA absorbance at 410 nm. R4-C9, R5-XC1, and R3-A4 bound with the following significance compared to insertless phage: p-value=0.005, 0.009, and 0.0001 respectively). Phage clones contained peptide sequences as follows: R5-C6: SEQ ID NO:2; R4-C9: SEQ ID NO:5; R5-XC1: SEQ ID NO:1; R3-A4: SEQ ID NO:95.
(§3) Target proteins were immobilized on 96 well tissue culture plates by incubation for 1-2 hours at room temperature or overnight at four degrees Celsius. Both phage and protein coated plate were blocked for 30 minutes with RPMI 1640+1% Bovine Serum Albumin (BSA) at room temperature. Phage were incubated with target in RPMI 1640+1% BSA for 1 hour at room temperature, wells were washed five times in PBS+0.05% Tween-20, and wells were incubated with 1:5000 HRP/anti-M13 monoclonal antibody (in PBS) for 1 hour. Wells were again washed five times in PBS+0.05% Tween-20, and signal detected by incubation in 1×ABTS Stock Solution (100 mg ABTS in 450 ml of 0.05 M Citric Acid, pH 4.0) and absorbance reading at 410 nm. […] Significance was calculated by two-tailed, two-sample equal variance test.

Test [3] deals with T2, xPSM (extracellular portion of human …). The test can be described thus: competition: 380 nM soluble PSMA (xPSM) against LNCaP cells for R5-XC1 phage, 500 nM BSA as control. The method, then:
FIG. 7 depicts the specific blocking of LNCaP phage binding by soluble xPSM protein. 10¹⁰ R5-XC1 phage or the round one phage pool were allowed to bind LNCaP cells in the presence of 380 nM PSMA or 500 nM BSA.
as §1

The target in test [4] is T3, Tag-xPSM fusion target protein. Briefly: phage ELISA, Tag-xPSM immobilised on microtiter plates, 10^10 PFU, absorbance at 410 nm.
Excerpt: as §2, §3

T1 sequence (Q04609 whole entry): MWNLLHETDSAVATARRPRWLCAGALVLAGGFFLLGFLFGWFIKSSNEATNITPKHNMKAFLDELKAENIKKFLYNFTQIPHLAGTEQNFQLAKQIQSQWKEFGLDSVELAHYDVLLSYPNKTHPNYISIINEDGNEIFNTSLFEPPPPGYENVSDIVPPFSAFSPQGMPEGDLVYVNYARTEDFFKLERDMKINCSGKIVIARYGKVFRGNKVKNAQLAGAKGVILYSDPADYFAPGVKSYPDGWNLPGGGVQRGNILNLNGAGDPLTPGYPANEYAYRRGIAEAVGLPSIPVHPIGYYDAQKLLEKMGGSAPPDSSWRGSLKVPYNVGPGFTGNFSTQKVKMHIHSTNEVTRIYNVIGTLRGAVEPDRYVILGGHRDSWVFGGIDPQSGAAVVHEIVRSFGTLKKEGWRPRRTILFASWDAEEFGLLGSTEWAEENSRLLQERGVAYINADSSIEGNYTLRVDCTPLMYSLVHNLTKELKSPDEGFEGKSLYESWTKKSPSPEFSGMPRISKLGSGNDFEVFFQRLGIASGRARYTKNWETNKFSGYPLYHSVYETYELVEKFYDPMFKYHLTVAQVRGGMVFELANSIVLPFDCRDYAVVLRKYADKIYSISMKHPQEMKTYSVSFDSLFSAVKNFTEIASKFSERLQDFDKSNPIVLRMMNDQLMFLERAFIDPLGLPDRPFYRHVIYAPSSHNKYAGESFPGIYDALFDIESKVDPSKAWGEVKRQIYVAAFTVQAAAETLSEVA
T3 sequence (Q04609 44-750): as the sequence (Q04609 44-750) above

B1: R5-C6 phage (M13 phage displaying CTITSKRTC) (peptide)
chain: CTITSKRTC
modifications: not fully specified (bridges); cysteine pairing not given here; also: displayed on M13 phage pIII coat protein
notes: Disulfide-constrained heptapeptide flanked by cysteines, tested as whole phage; not shown: pIII coat protein of M13 filamentous bacteriophage (New England Biolabs CX7C library); junction between peptide and pIII
B1: the binding result (in the test with PSMA on LNCaP cells; in test [1]) was “binds” each time.

B2: R3-A4 phage (M13 phage displaying CFPQSSARC) (peptide)
chain: CFPQSSARC
modifications: not fully specified (bridges); cysteine pairing not given here; also: displayed on M13 phage pIII coat protein
notes: as for B1
As for B2, the binding result (with PSMA on LNCaP cells; in test [2]) was “binds” throughout.

B3: SEQ ID NO 107 phage (M13 phage displaying CTPQSSDRC) (peptide)
chain: CTPQSSDRC
modifications: not fully specified (bridges); cysteine pairing not given here; also: displayed on M13 phage pIII coat protein
notes: Tested as whole phage; not shown: pIII coat protein of M13 filamentous bacteriophage (New England Biolabs CX7C library); junction between peptide and pIII
Take B3: the binding result in test [1] is listed as “binds”.

B4: R5-XC1 phage (M13 phage displaying CQKHHNYLC) (peptide)
chain: CQKHHNYLC
modifications: not fully specified (bridges); cysteine pairing not given here; also: displayed on M13 phage pIII coat protein
notes: as for B1
As for B4, the binding result (in test [3]; with PSMA on LNCaP cells; in test [4]) was “binds” in each case.

B5: SEQ ID NO 28 phage (M13 phage displaying CLSSNSSLC) (peptide)
chain: CLSSNSSLC
modifications: not fully specified (bridges); cysteine pairing not given here; also: displayed on M13 phage pIII coat protein
notes: Tested as whole phage; also called R3-C1; not shown: pIII coat protein of M13 filamentous bacteriophage (New England Biolabs CX7C library); junction between peptide and pIII
B5: in test [1], the binding result is recorded as “binds”.

B6: SEQ ID NO 106 phage (M13 phage displaying CQVRHSAQC) (peptide)
chain: CQVRHSAQC
modifications: not fully specified (bridges); cysteine pairing not given here; also: displayed on M13 phage pIII coat protein
notes: as for B3
As for B6, in test [1], the binding result was “binds”.

B7: SEQ ID NO 9 phage (M13 phage displaying CPSVNTKQC) (peptide)
chain: CPSVNTKQC
modifications: not fully specified (bridges); cysteine pairing not given here; also: displayed on M13 phage pIII coat protein
notes: Tested as whole phage; also called R5-C11; not shown: pIII coat protein of M13 filamentous bacteriophage (New England Biolabs CX7C library); junction between peptide and pIII
Turning to B7, the binding result in test [1] is listed as “binds”.
